Source: PMC5017906

Biological target: nAChRs on CA1 hippocampal interneurons (not stated (rat brain slices in the text, NMRI mice in the methods))

attenuation of inward currents induced by the non-specific nAChR agonist DMPP (50 μM) in CA1 hippocampal interneurons in the presence of 6 μM Lypd6, whole-cell patch clamp: 74.8%
average reduction of inward currents induced by nicotine (100 μM) in CA1 hippocampal interneurons in the presence of 6 μM Lypd6, whole-cell patch clamp at −60 mV: 57.4%
B1: Recombinant human GST-tagged Lypd6 (LY6/PLAUR domain-containing 6), Q86Y78 23-147 (natural protein)
chain: AQSRDFTVKDIIYLHPSTTPYPGGFKCFTCEKAADNYECNRWAPDIYCPRETRYCYTQHTMEVTGNSISVTKRCVPLEECLSTGCRDSEHEGHKVCTSCCEGNICNLPLPRNETDATFATTSPIN
